Consider 1 molecule from patent publication EP4537907A1.

This assay deals with recombinant human CD248 (internally produced) (human) (UniProt Q9HCU0). The experiment in a line: competition ELISA: non-purified Fab E. coli supernatant mixed 1:1 with biotinylated human CD248, added to immobilised human IGFBP5, Streptavidin-HRP.
Sequence of recombinant human CD248 (internally produced) (human) (Q9HCU0 18-687 limits assumed): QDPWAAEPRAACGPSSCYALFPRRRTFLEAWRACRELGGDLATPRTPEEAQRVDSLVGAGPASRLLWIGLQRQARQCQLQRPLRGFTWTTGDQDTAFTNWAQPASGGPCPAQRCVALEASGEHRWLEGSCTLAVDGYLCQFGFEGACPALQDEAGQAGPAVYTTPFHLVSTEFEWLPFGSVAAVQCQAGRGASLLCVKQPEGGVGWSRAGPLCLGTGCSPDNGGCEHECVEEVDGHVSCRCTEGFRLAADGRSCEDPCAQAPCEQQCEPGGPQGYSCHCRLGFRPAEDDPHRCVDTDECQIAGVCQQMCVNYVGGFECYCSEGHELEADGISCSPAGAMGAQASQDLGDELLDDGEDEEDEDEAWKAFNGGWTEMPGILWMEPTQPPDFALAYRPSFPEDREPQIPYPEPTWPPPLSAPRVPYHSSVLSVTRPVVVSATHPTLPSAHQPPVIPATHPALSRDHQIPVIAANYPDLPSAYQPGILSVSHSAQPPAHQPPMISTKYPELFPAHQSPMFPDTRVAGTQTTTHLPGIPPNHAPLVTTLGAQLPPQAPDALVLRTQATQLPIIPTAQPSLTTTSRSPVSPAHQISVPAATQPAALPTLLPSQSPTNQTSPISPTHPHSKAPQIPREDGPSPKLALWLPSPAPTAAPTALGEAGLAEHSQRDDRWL

B1: YU1023-A02 Fab (Fab, V domains shown)
VH: QVQLVESGPGLVKPSQTLSLTCTVSGGSISSGGYYWSWIRQHPGKGLEWIGYIYYSGSTYYNPSLKSRVTISVDTSKNQFSLKLSSVTAADTAVYYCARVRGRSATYFDYWGQGTTVTVSS
VL: QSVLTQPPSVSGAPGQRVTISCTGSSSNIGAGYDVRWYQQLPGTAPKLLIYANNNRPSGVPDRFSGSKSGTSASLAITGLQTEDEADYYCQSYDISLSGSLFGGGTKLTVL
For B1, the fold inhibition of CD248-IGFBP5 binding over the negative control antibody (Palivizumab) was above 10 fold.
